From patent CN117255804A (GENSCRIPT NANJING CO LTD, dated 2023)

B1: 367C3A3-VH1-VL2 (antibody, IgG4, V domains shown)
VH: QVQLVQSGSELKKPGASVKVSCKASGYTFTDYSMHWVRQAPGQGLEWMGWINTETGEPTYADDFKGRFVFSLDTSVSTAYLQISSLKAEDTAVYYCARYDYAMDYWGQGTLVTVSS
VL: DIQMTQSPSTLSASVGDRVTITCKASQDVSSAVAWYQQKSGKAPKLLIYWASIRHTGVPSRFSGSGSGTEFTLTISSLQPDDFATYYCQQRYTTPPTFGGGTKVEIK
notes: Humanized mAb; Only VH and VL are tied to it
B2: 367C3A3-VH2-VL1 (antibody, IgG4, V domains shown)
VH: QVQLVQSGAEVKKPGASVKVSCKASGYTFTDYSMHWVRQAPGQRLEWMGWINTETGEPTYADDFKGRVTITRDTSASTAYMELSSLRSEDTAVYYCARYDYAMDYWGQGTLVTVSS
VL: DIQMTQSPSSLSASVGDRVTITCKASQDVSSAVAWYQQKPGKAPKLLIYWASIRHTGVPSRFSGSGSGTDFTLTISSLQPEDFATYYCQQRYTTPPTFGGGTKVEIK
notes: as for B1
B3: 367C3A3-VH2-VL2 (antibody, IgG4, V domains shown)
VH: QVQLVQSGAEVKKPGASVKVSCKASGYTFTDYSMHWVRQAPGQRLEWMGWINTETGEPTYADDFKGRVTITRDTSASTAYMELSSLRSEDTAVYYCARYDYAMDYWGQGTLVTVSS
VL: DIQMTQSPSTLSASVGDRVTITCKASQDVSSAVAWYQQKSGKAPKLLIYWASIRHTGVPSRFSGSGSGTEFTLTISSLQPDDFATYYCQQRYTTPPTFGGGTKVEIK
notes: as for B1
B4: 382A3E3-VH1-VL3 (antibody, IgG4, V domains shown)
VH: EVQLVESGGGLVQPGGSLRLSCAASGFTFSDYGMSWVRQAPGKGLEWVSFISNVAYGIFYADTVTGRFTISRDNAKNSLYLQMNSLRAEDTAVYYCARDELGRFDYWGQGTLVTVSS
VL: DIQMTQSPSSLSASVGDRVTITCHVSQNINIWLSWYQQKPGKAPKLLIYKASNLHTGVPSRFSGSGSGTDFTLTISSLQPEDFATYYCQQGQTFPRTFGGGTKVEIK
notes: as for B1
B5: 379E7A6-VH1-VL2 (antibody, IgG4, V domains shown)
VH: EVQLLESGGGLVQPGGSLRLSCAASGFTFSDYGMAWVRQAPGKGLEWVSFISNVAYSKFYVDTVTGRFTISRDNSKNTLYLQMNSLRAEDTAVYYCARDELGRFPYWGQGTLVTVSS
VL: DIQMTQSPSTLSASVGDRVTITCHVSHNINIWLNWYQQKPGKAPKLLIYKASNLHTGVPSRFSGSGSGTEFTLTISSLQPDDFATYYCQQGQTFPRTFGGGTKVEIK
notes: as for B1
B6: 382A3E3-VH1-VL4 (antibody, IgG4, V domains shown)
VH: EVQLVESGGGLVQPGGSLRLSCAASGFTFSDYGMSWVRQAPGKGLEWVSFISNVAYGIFYADTVTGRFTISRDNAKNSLYLQMNSLRAEDTAVYYCARDELGRFDYWGQGTLVTVSS
VL: DIQMTQSPSSLSASVGDRVTITCHVSQNINIWLSWYQQKPGKVPKLLIYKASNLHTGVPSRFSGSGSGTDFTLTISSLQPEDVATYYCQQGQTFPRTFGQGTKVEIK
notes: as for B1
B7: 382A3E3-VH2-VL5 (antibody, IgG4, V domains shown)
VH: QVQLVESGGGVVQPGGSLRLSCAASGFTFSDYGMSWVRQAPGKGLEWVAFISNVAYGIFYADTVTGRFTISRDNSKNTLYLQMNSLRAEDTAVYYCAKDELGRFDYWGQGTLVTVSS
VL: DIQLTQSPSFLSASVGDRVTITCHVSQNINIWLSWYQQKPGKAPKLLIYKASNLHTGVPSRFSGSGSGTEFTLTISSLQPEDFATYYCQQGQTFPRTFGGGTKVEIK
notes: as for B1
B8: 379E7A6-VH1-VL1 (antibody, IgG4, V domains shown)
VH: EVQLLESGGGLVQPGGSLRLSCAASGFTFSDYGMAWVRQAPGKGLEWVSFISNVAYSKFYVDTVTGRFTISRDNSKNTLYLQMNSLRAEDTAVYYCARDELGRFPYWGQGTLVTVSS
VL: DIQMTQSPSSLSASVGDRVTITCHVSHNINIWLNWYQQKPGKAPKLLIYKASNLHTGVPSRFSGSGSGTDFTFTISSLQPEDIATYYCQQGQTFPRTFGGGTKVEIK
notes: as for B1
B9: 382A3E3-VH1-VL2 (antibody, V domains shown)
VH: EVQLVESGGGLVQPGGSLRLSCAASGFTFSDYGMSWVRQAPGKGLEWVSFISNVAYGIFYADTVTGRFTISRDNAKNSLYLQMNSLRAEDTAVYYCARDELGRFDYWGQGTLVTVSS
VL: DIQMTQSPSTLSASVGDRVTITCHVSQNINIWLSWYQQKPGKAPKLLIYKASNLHTGVPSRFSGSGSGTEFTLTISSLQPDDFATYYCQQGQTFPRTFGGGTKVEIK
notes: Humanized mAb expressed in CHO-3E7
B10: 382A3E3-VH1-VL5 (antibody, IgG4, V domains shown)
VH: EVQLVESGGGLVQPGGSLRLSCAASGFTFSDYGMSWVRQAPGKGLEWVSFISNVAYGIFYADTVTGRFTISRDNAKNSLYLQMNSLRAEDTAVYYCARDELGRFDYWGQGTLVTVSS
VL: DIQLTQSPSFLSASVGDRVTITCHVSQNINIWLSWYQQKPGKAPKLLIYKASNLHTGVPSRFSGSGSGTEFTLTISSLQPEDFATYYCQQGQTFPRTFGGGTKVEIK
notes: as for B1

Target: T1, 人4-1BB (human, UniProt Q07011 24-255)
T1 construct: whole, on cells; also called TNFRSF9; CD137
Experiment: FACS on HEK293 cells expressing human 4-1BB, 1.0 ug/ml

T1 sequence (Q07011 24-255): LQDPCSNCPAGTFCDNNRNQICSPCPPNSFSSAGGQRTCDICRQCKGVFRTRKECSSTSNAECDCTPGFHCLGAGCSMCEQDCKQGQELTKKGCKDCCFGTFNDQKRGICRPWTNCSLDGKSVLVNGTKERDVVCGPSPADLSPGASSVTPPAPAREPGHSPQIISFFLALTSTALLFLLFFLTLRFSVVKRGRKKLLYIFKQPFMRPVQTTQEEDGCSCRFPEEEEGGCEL

Binder	binding result
B1	binds
B2	binds
B3	binds
B4	binds
B5	binds
B6	binds
B7	binds
B8	binds
B9	binds
B10	binds
